# Results reported in PMC6051341.
# Legend:
# [1] = target: ΔM-N L-selectin–GFP (human) (UniProt P14151); assay: FRET or BRET; FLIM measurement of FRET; THP-1 cells perfused over TNF-activated HUVECs, fixed in 4% PFA at 25 min (late TEM); optical section above the endothelium (top, non-transmigrated uropods)
# [2] = target: ΔM-N L-selectin–GFP (human) (UniProt P14151); assay: FRET or BRET; FLIM measurement of FRET; THP-1 cells perfused over TNF-activated HUVECs, fixed in 4% PFA at 25 min (late TEM); optical section below the endothelium (base, transmigrated pseudopods)
# [3] = target: ΔM-N L-selectin–GFP (human) (UniProt P14151); assay: FRET or BRET; FLIM measurement of FRET; THP-1 cells perfused over TNF-activated HUVECs, fixed in 4% PFA at 6 min (early TEM); optical section above the endothelium (top, non-transmigrated uropods)
# [4] = target: ΔM-N L-selectin–GFP (human) (UniProt P14151); assay: FRET or BRET; FLIM measurement of FRET; THP-1 cells perfused over TNF-activated HUVECs, fixed in 4% PFA at 6 min (early TEM); optical section below the endothelium (base, transmigrated pseudopods)
# [5] = target: ΔM-N L-selectin–GFP (human) (UniProt P14151); assay: FRET or BRET; FLIM measurement of FRET between GFP (donor, on L-selectin) and RFP (on the ERM protein); unchallenged THP-1 cells seeded onto poly-L-lysine-coated coverslips for 10 min at 37°C, fixed
# UniProt P14151, sequence (P14151 39-372, stated change not applied): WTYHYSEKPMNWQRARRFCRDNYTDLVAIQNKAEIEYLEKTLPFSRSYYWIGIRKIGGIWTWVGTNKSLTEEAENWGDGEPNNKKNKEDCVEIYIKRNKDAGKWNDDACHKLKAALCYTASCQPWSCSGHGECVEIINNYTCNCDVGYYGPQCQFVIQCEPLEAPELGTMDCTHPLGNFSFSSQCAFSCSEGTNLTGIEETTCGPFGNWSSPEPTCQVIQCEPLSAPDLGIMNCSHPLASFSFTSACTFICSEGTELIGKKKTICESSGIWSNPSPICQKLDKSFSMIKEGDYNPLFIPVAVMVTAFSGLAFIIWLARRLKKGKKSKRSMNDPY
"FRET efficiency (uropods, 25 min) [1] [%]","FRET efficiency (pseudopods, 25 min) [2] [%]","FRET efficiency (uropods, 6 min) [3] [%]","FRET efficiency (pseudopods, 6 min) [4] [%]",fold FRET efficiency against moesin with the same L-selectin (unchallenged cells) [5] [fold],Substance
7,6.5,6.5,7.1,3.2,ezrin–RFP (from UniProt P15311 1-586) (natural protein)
2,4.2,2.7,2.4,,moesin–RFP (from UniProt P26041 1-577) (natural protein)
